Legend:
Assay in all cases: cell-based or functional assay
[1] = target: HIV-1 Env of pseudovirus Ce704809221_1B3 (HIV-1)
[2] = target: HIV-1 Env of pseudovirus 3415.v1.c1 (HIV-1)
[3] = target: HIV-1 Env of pseudovirus C4118.c09 (HIV-1)
[4] = target: HIV-1 envelope of pseudovirus ZM109F.PB4 (HIV-1)
[5] = target: HIV-1 envelope of pseudovirus 7030102001E5(Rev-) (HIV-1)
[6] = target: HIV-1 Env of pseudovirus REJO4541.67 (HIV-1)
[7] = target: HIV-1 envelope of pseudovirus SC422661.8 (HIV-1)
[8] = target: HIV-1 envelope of pseudovirus 6244_13_85_4576 (HIV-1)
[9] = target: HIV-1 Env of pseudovirus 9004SS_A3_4 (HIV-1)
[10] = target: HIV-1 envelope of pseudovirus RHPA4259.7 (HIV-1)
[11] = target: HIV-1 envelope of pseudovirus Q451.e2 (HIV-1)
[12] = target: HIV-1 envelope of pseudovirus C2101.c01 (HIV-1)
[13] = target: HIV-1 envelope spike of pseudovirus BaL.26 (HIV-1)
[14] = target: HIV-1 Env of pseudovirus CNE58 (HIV-1)
[15] = target: HIV-1 envelope of pseudovirus ZM249M.PL1 (HIV-1)
[16] = target: HIV-1 envelope of pseudovirus 6041.v3.c23 (HIV-1)
[17] = target: HIV-1 envelope of pseudovirus 9004SS_A3_4 (HIV-1)
[18] = target: HIV-1 Env of pseudovirus 6041.v3.c23 (HIV-1)
[19] = target: HIV-1 Env of pseudovirus CNE20 (HIV-1)
[20] = target: HIV-1 Env of pseudovirus 249M B10 (HIV-1)
[21] = target: HIV-1 Env of pseudovirus 0260.v5.c36 (HIV-1)
[22] = target: HIV-1 envelope spike of pseudovirus SS1196.1 (HIV-1)
[23] = target: HIV-1 Env of pseudovirus HIV-0013095-2.11 (HIV-1)
[24] = target: HIV-1 Env of pseudovirus HIV-16845-2.22 (HIV-1)
[25] = target: HIV-1 Env of pseudovirus 6535.3 (HIV-1)
[26] = target: HIV-1 envelope of pseudovirus C1080.c03 (HIV-1)
[27] = target: HIV-1 Env of pseudovirus Ce1172_H1 (HIV-1)
[28] = target: HIV-1 envelope of pseudovirus HIV-0013095-2.11 (HIV-1)
[29] = target: HIV-1 Env of pseudovirus CAP210.2.00.E8 (HIV-1)
[30] = target: HIV-1 envelope of pseudovirus ZM197M.PB7 (HIV-1)
[31] = target: HIV-1 envelope of pseudovirus BJOX028000.10.3 (HIV-1)
[32] = target: HIV-1 Env of pseudovirus Q769.d22 (HIV-1)
[33] = target: HIV-1 envelope of pseudovirus BJOX015000.11.5 (HIV-1)
[34] = target: HIV-1 envelope of pseudovirus 1054_07_TC4_1499 (HIV-1)
[35] = target: HIV-1 Env of pseudovirus CNE8 (HIV-1)
[36] = target: HIV-1 Env of pseudovirus BJOX010000.06.2 (HIV-1)
[37] = target: HIV-1 Env of pseudovirus PVO.4 (HIV-1)
[38] = target: HIV-1 envelope of pseudovirus A07412M1.vrc12 (HIV-1)
[39] = target: HIV-1 envelope of pseudovirus BJOX010000.06.2 (HIV-1)
[40] = target: HIV-1 envelope spike of pseudovirus QH0692.42 (HIV-1)
[41] = target: HIV-1 Env of pseudovirus C3347.c11 (HIV-1)
[42] = target: HIV-1 envelope of pseudovirus Ce703010054_2A2 (HIV-1)
[43] = target: HIV-1 envelope of pseudovirus 263-8 (HIV-1)
[44] = target: HIV-1 envelope of pseudovirus X1193_c1 (HIV-1)
[45] = target: HIV-1 Env of pseudovirus T251-18 (HIV-1)
[46] = target: HIV-1 envelope of pseudovirus 191821_E6_1 (HIV-1)
[47] = target: HIV-1 envelope of pseudovirus T257-31 (HIV-1)
[48] = target: HIV-1 envelope of pseudovirus CNE8 (HIV-1)
[49] = target: HIV-1 envelope of pseudovirus YU-2 (HIV-1)
[50] = target: HIV-1 envelope of pseudovirus 231966.c02 (HIV-1)

10-1074 (antibody), sequence (VH): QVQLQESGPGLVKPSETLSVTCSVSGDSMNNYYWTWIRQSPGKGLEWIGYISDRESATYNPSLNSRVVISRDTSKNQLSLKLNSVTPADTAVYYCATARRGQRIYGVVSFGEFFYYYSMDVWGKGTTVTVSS
10-1074 (antibody), sequence (V domain): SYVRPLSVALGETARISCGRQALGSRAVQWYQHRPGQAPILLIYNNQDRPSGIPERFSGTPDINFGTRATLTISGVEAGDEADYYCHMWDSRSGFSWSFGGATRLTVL

For PGT121 (antibody), the IC80 (TZM-bl neutralization) [1] was 0.492 µg/mL, the IC80 (TZM-bl neutralization) [2] was > 50 µg/mL and the IC80 (TZM-bl neutralization) [3] was > 50 µg/mL. The IC50 (TZM-bl neutralization) [4] was 7.89 µg/mL, the IC50 (TZM-bl neutralization) [5] was 0.01 µg/mL and the IC80 (TZM-bl neutralization) [6] was > 50 µg/mL. It also gave an IC50 (TZM-bl neutralization) [7] of 0.101 µg/mL, an IC50 (TZM-bl neutralization) [8] of 0.249 µg/mL and an IC80 (TZM-bl neutralization) [9] of 0.026 µg/mL. The IC50 (TZM-bl neutralization) [10] was 0.014 µg/mL, the IC50 (TZM-bl neutralization) [11] was > 50 µg/mL and the IC50 (TZM-bl neutralization) [12] was > 50 µg/mL. For the same substance, the IC50 (TZM-bl neutralization assay) [13] was 0.021 µg/mL, the IC80 (TZM-bl neutralization assay) [13] was 0.081 µg/mL and the IC80 (TZM-bl neutralization) [14] was > 50 µg/mL. For the same substance, the IC50 (TZM-bl neutralization) [15] was > 50 µg/mL, the IC50 (TZM-bl neutralization) [16] was > 50 µg/mL and the IC50 (TZM-bl neutralization) [17] was 0.008 µg/mL. For the same substance, the IC80 (TZM-bl neutralization) [18] was > 50 µg/mL, the IC80 (TZM-bl neutralization) [19] was 0.008 µg/mL and the IC80 (TZM-bl neutralization) [20] was > 50 µg/mL. It also gave an IC80 (TZM-bl neutralization) [21] of 0.152 µg/mL, an IC50 (TZM-bl neutralization assay) [22] of 0.008 µg/mL and an IC80 (TZM-bl neutralization assay) [22] of 0.03 µg/mL. The IC80 (TZM-bl neutralization) [23] was > 50 µg/mL, the IC80 (TZM-bl neutralization) [24] was > 50 µg/mL and the IC80 (TZM-bl neutralization) [25] was 0.021 µg/mL. For the same substance, the IC50 (TZM-bl neutralization) [26] was > 50 µg/mL, the IC80 (TZM-bl neutralization) [27] was 0.088 µg/mL and the IC50 (TZM-bl neutralization) [28] was > 50 µg/mL. For the same substance, the IC80 (TZM-bl neutralization) [29] was > 50 µg/mL, the IC50 (TZM-bl neutralization) [30] was > 50 µg/mL and the IC50 (TZM-bl neutralization) [31] was > 50 µg/mL. The IC80 (TZM-bl neutralization) [32] was > 50 µg/mL, the IC50 (TZM-bl neutralization) [33] was > 50 µg/mL and the IC50 (TZM-bl neutralization) [34] was 0.115 µg/mL. The IC80 (TZM-bl neutralization) [35] was > 50 µg/mL, the IC80 (TZM-bl neutralization) [36] was > 50 µg/mL and the IC80 (TZM-bl neutralization) [37] was 0.945 µg/mL. For the same substance, the IC50 (TZM-bl neutralization) [38] was 0.001 µg/mL, the IC50 (TZM-bl neutralization) [39] was > 50 µg/mL and the IC50 (TZM-bl neutralization assay) [40] was 1.08 µg/mL. The IC80 (TZM-bl neutralization) [41] was > 50 µg/mL, the IC50 (TZM-bl neutralization) [42] was > 50 µg/mL and the IC50 (TZM-bl neutralization) [43] was 3.35 µg/mL. For the same substance, the IC50 (TZM-bl neutralization) [44] was 0.045 µg/mL, the IC80 (TZM-bl neutralization) [45] was > 50 µg/mL and the IC50 (TZM-bl neutralization) [46] was > 50 µg/mL. The IC50 (TZM-bl neutralization) [47] was > 50 µg/mL, the IC50 (TZM-bl neutralization) [48] was > 50 µg/mL and the IC50 (TZM-bl neutralization) [49] was 0.098 µg/mL. The IC50 (TZM-bl neutralization) [50] was > 50 µg/mL.
For 10-1074 (antibody), the IC80 (TZM-bl neutralization) [1] was 0.696 µg/mL, the IC80 (TZM-bl neutralization) [2] was > 50 µg/mL and the IC80 (TZM-bl neutralization) [3] was > 50 µg/mL. For the same substance, the IC50 (TZM-bl neutralization) [4] was > 50 µg/mL, the IC50 (TZM-bl neutralization) [5] was 0.006 µg/mL and the IC80 (TZM-bl neutralization) [6] was > 50 µg/mL. For the same substance, the IC50 (TZM-bl neutralization) [7] was 0.091 µg/mL, the IC50 (TZM-bl neutralization) [8] was 0.202 µg/mL and the IC80 (TZM-bl neutralization) [9] was 0.03 µg/mL. The IC50 (TZM-bl neutralization) [10] was 0.021 µg/mL, the IC50 (TZM-bl neutralization) [11] was > 50 µg/mL and the IC50 (TZM-bl neutralization) [12] was > 50 µg/mL. For the same substance, the IC50 (TZM-bl neutralization assay) [13] was 0.033 µg/mL, the IC80 (TZM-bl neutralization assay) [13] was 0.124 µg/mL and the IC80 (TZM-bl neutralization) [14] was 0.968 µg/mL. For the same substance, the IC50 (TZM-bl neutralization) [15] was > 50 µg/mL, the IC50 (TZM-bl neutralization) [16] was > 50 µg/mL and the IC50 (TZM-bl neutralization) [17] was 0.011 µg/mL. The IC80 (TZM-bl neutralization) [18] was > 50 µg/mL, the IC80 (TZM-bl neutralization) [19] was 0.005 µg/mL and the IC80 (TZM-bl neutralization) [20] was > 50 µg/mL. It also gave an IC80 (TZM-bl neutralization) [21] of 0.16 µg/mL, an IC50 (TZM-bl neutralization assay) [22] of 0.01 µg/mL and an IC80 (TZM-bl neutralization assay) [22] of 0.127 µg/mL. For the same substance, the IC80 (TZM-bl neutralization) [23] was > 50 µg/mL, the IC80 (TZM-bl neutralization) [24] was 5.83 µg/mL and the IC80 (TZM-bl neutralization) [25] was 0.026 µg/mL. The IC50 (TZM-bl neutralization) [26] was > 50 µg/mL, the IC80 (TZM-bl neutralization) [27] was 0.166 µg/mL and the IC50 (TZM-bl neutralization) [28] was > 50 µg/mL. The IC80 (TZM-bl neutralization) [29] was > 50 µg/mL, the IC50 (TZM-bl neutralization) [30] was > 50 µg/mL and the IC50 (TZM-bl neutralization) [31] was > 50 µg/mL. For the same substance, the IC80 (TZM-bl neutralization) [32] was > 50 µg/mL, the IC50 (TZM-bl neutralization) [33] was > 50 µg/mL and the IC50 (TZM-bl neutralization) [34] was 0.129 µg/mL. For the same substance, the IC80 (TZM-bl neutralization) [35] was > 50 µg/mL, the IC80 (TZM-bl neutralization) [36] was > 50 µg/mL and the IC80 (TZM-bl neutralization) [37] was 0.36 µg/mL. For the same substance, the IC50 (TZM-bl neutralization) [38] was < 0.001 µg/mL, the IC50 (TZM-bl neutralization) [39] was > 50 µg/mL and the IC50 (TZM-bl neutralization assay) [40] was 0.259 µg/mL. For the same substance, the IC80 (TZM-bl neutralization assay) [40] was 0.861 µg/mL, the IC80 (TZM-bl neutralization) [41] was > 50 µg/mL and the IC50 (TZM-bl neutralization) [42] was > 50 µg/mL. The IC50 (TZM-bl neutralization) [43] was 0.666 µg/mL, the IC50 (TZM-bl neutralization) [44] was 0.083 µg/mL and the IC80 (TZM-bl neutralization) [45] was 7.39 µg/mL. The IC50 (TZM-bl neutralization) [46] was > 50 µg/mL, the IC50 (TZM-bl neutralization) [47] was > 50 µg/mL and the IC50 (TZM-bl neutralization) [48] was > 50 µg/mL. For the same substance, the IC50 (TZM-bl neutralization) [49] was 0.143 µg/mL and the IC50 (TZM-bl neutralization) [50] was > 50 µg/mL.

From US12338277
